Experimental data from the DeepSol protein solubility set.

assay: soluble on expression in E. coli; label from the status in PepcDB or PDB records

Sequence | soluble on expression in E. coli
MSLNTPQSAIIPDHAQAGIFIEADFAANRLNDIKAACRASLDALTALKARFPDDILGLTIAFGSKAWATFGHTDEGSEIKPFSEMGNGLAPSTQHDMSIHIQSFRQNAAYALAQSVLGAFGDSICVASEEHGLRLYQDRGLDGFVDGTENPQGDENVREVAIIPEGKPDAGGSYVLLQKYLHDLKKWDAVPVAEQEASVGRGKETDDEFGRDVRLPDSHLGRVNLKENGVGLKIVRRSLPFGKISGEHGLMFTAYCRTLHNIEAQLLSMFGDTDGKTDLLLRHLSAAVSGGYYYAPSVERLQNLEGGSHHHHHH | soluble
MNSFIEGAHQPLLSVWRRAFLFSGALLLTACSHNASPPPFTASGFAGDHGAVRIWRKDTNDEVHLLSVFSPWHSGSTTTSEYRWQGDTLSLIELNIYSKPPEHIRARFDAHGELSFMQREVGGQKQQLSNDQIALYRYRAEQIRQTSDALRLGRVILRQGRWHADHTVTTCEGETLKPDLDSWAISHIERRQNHSSVEVSVAWLEAPEGSQLLLVANSDFCHWQPQAKSF | not soluble
MGSDKIHHHHHHMARKPIDRPVHIPPLQALRALEAAARHRSFSRAAEELALTHSAISHHMRALEDKLGTKLFQRTGSQMAPTSAGARLAEQIRAALDDIESAVREASSSTTTPVVRLQVSVMADLANAWLIRRLPSLHAQVPSLDLHLRLHAEITPPDPYSVDVGIWHQRIDLPGFECHNLIEDHVIAVASPALLARYPGFTPADVPRMPMLRFALRPWRDWLEAAGLPDAEPERGPIFQDAGLMLQSAVAGLGVATARAQLAHDYLESGQLVQVGSTRIPSSLHYWVTWREGNPREKAIQQFHAWLQEQVRRETPTAEPTTTDDAMK | not soluble
MPAVAFPVSSPRLLARAVQIAVLAMGALCVGCQSVDYSPPRQDRPPRLVSGLVYWGGDDKEGSRAADKISDLPVYNGEDVWQRVAQRCRLVDGQGMNERIARQRDWLLSNRGFITGASVRASPYLHFIVERLDERNMPLELALLPMIESSYNPMANSPAAAAGLWQFIPSTGRSFNLHQSATYDARRDVVASSKAAMDYLTRLHDQFNNDWLLALAAYNAGEGTVGRAIEANRRRGLPVDYWNLNLPKETQDYVPRLLALSMVVRNPNAYGVKLTPVANTPYFDVVELNHAVDLTQLAATAGVDEGQLLRLNSAFLRKKTFDGPGRLLIPKTQNRVLTTSIARITGESPVTASIPLVTPSAIVKRAAERLPAPAPVAERPVRVAERPPLPKPVQSAQLAENLPSPKTAQPLPVAQQPTAPEALQPAPAAESAPAVEIAQSAPVVEPDPLTNRIQLPRIRDDRSSPRKRDDDEYRSGPRELPTGPRVVVFASDPRQLEHHHHHH | not soluble
MKGRWAKYVATGVMLAMLAACSSKPTDRGQQYKDGKFTQPFSLVNQPDAVGAPINAGDFAEQVDQIRSASPRLYTNQSNVYNAVQNWLRSGGDTRTMRQFGIDAWQMEGTDNYGNVQFTGYYTPVVQARHTRQGAFQYPIYSMPPKRGRLPSRAQIYAGALSDKYILAWSNSLMDNFIMDVQGSGYIDFGDGSPLNFFSYAGKNGWPYRSIGKVLIDRGEVKKEDMSMQAIREWGEKHSEAEVRELLEQNPSFVFFKPQSFAPVKGASAVPLIGRASVASDRSIIPPGTTLLAEVPLLDNNGKFSGQYELRLMVALDVGGAIKGQHFDIYQGIGPDAGHRAGWYNHYGRVWVLKSAPGAGNVFSG | soluble
MSLSTMLVAEDLSAVGGISLSSALPVLTAMQYDVAALPTSLLSTHTSGYGTPAVVDLSTWLPQVFAHWTRAQLHFDQALIGYVGSVALCQQITTYLEQQTLSLLVVDPVLGDLGQLYQGFDQDYVAAMRQLIQQADVILPNTTEAALLTGAPYQVTPDLEVILPALQAQLKTGAHAVITDVQRADQIGCAWLDEAGHVQYCGARRLPGHYNGTGDTLAAVIAGLLGRGYPLAPTLARANQWLNMAVAETIAQNRTDDRQGVALGDLLQAILALNEGHHHHHH | soluble
MKRIQEIQQNLERLAEMDEHLEQCEEWNVVAQEIVQKLSTIRKEVERSAAPTPLLLTPPGSCGSGSIYSDISSEMTNVYTEAVEAYDQQIYSRCVRLVEGANRESPVDMCLISLAHHSYAEMVNAASGSDDAMKFAKWWAEFLDSVEAGRGHSEKIELLDYEAVAYEKIVKLGGVADVEKLIEVVVRSYEMVTLLNRPYHILSLQKLFRLTNVLSSSEVDLESDAFSSAKTVVLTGIQNVLRDRKKFAQLGKFNEHNMKIAMRRTAQPDFRVRYCEKR | soluble
MQLGDKQLVVQLACANQQRHNTNLPNSASAIAGIDLSQGAGRATEILCLMNMVTEDELKADDEYEEILEDVRDECSKYGIVRSLEIPRPYEDHPVPGVGKVFVEFASTSDCQRAQAALTGRKFANRTVVTSYYDVDKYHNRQF | not soluble
MGSDKIHHHHHHMEVAMEKIYYPRTIDSYLLEWKNERAHKPLLLRGARQVGKSSAVRQLGKTFKYFMEVNFERDKEIISVFTGNLKPKEITSRLAAFYGIPVVPGETLLFLDEIQACTPAIHSLWFFYEDYPELHVVAAGSLLEFALKKMAFFGVGRVRSLFMYPMSFDEFLAATGHAGWIEAKRNASPAEPLFEALHGKLVESFRNYLMVGGMPESVQNWVETEDYLKCQQVQDDIMLAYEDDFSKYEEKADPMLLRQTLRSVAQQIGGKFVYSNVQGNYRSEKIKSALELLKDAGLVRPAVHTAANGIPLGAEINEKFVKYIFLDSGLLLRLLGLENTGGTSEMSRLVLVGAASDLVNKGHITEMVAGLELLKYNTPVQRHDLYYWQNLSRGAQAEVDYVIVKDMRVVPLEVKAGTTGSMKSMYQFMEEKHLTYGIRTSLENFGKLEKADIIPLYALSNLYK | not soluble
MLPAEREQFIITFLKTNKKATIHDLALEFNVHEATIRRDLNKLEQYNQIKRTHGGVVLNDSEVWDELNFDDRETSYYDEKVAIGLKAAEFVENGDTLFIDSGSTTIHFARALTQKSNLTIITNDIHIASILKSTANQIIVTGGILYQDNYLLNGMITNETLKLFNPSKLFLATPAIDLEKGITHFNDTLASTKIQMVKQAKAVYVLTDSSKFDKVALYNVCSSDTIDVLITDQTNKNIDWQAYDNHFKHLITVHAEAHPELEHHHHHH | soluble
MGHHHHHHSHSHTIRDLKYTIENPRHFVDSHHQKPVNAIIEHVRDGSVVRALLLPDYYLVTVMLSGIKCPTFRREADGSETPEPFAAEAKFFTESRLLQRDVQIILESCHNQNILGTILHPNGNITELLLKEGFARCVDWSIAVYTRGAEKLRAAERFAKERRLRIWRDYVAPTANLDQK | not soluble
GMASSFLEEVDRLITLSGITFHASGTGTPELIKIYQDALGNEFPETYKLFLEKYGTLTFNGVSFYGISKRGLSAASIPDVKFATEQARTFGDINKEMIMIKNSGYGSIFSIDTSIIGSEGEPVIVETNLSFKDNTEKKVVANSFGEFLLEEIELSLTDLG | soluble
MGSDKIHHHHHHMTNNRLERFAHNLDWNLLRTFVVVVEEGSITAAANRLLLQQPAVSMALKRLEQTIGQKLIDRRPGRFDLTEAGEKLHLQCRDIFAAVIRLPHVLETAGEEITGHLNIHAVSHAHNPAWDRKLGSFFRMHPKVTISMTVATTVDVLSAVERNIATMGLCDGIIPEGLNKSFHIRERYALYCGRGHRLFGVEGVVFHDLRGDPYIAFIADVLGGQHMNSVTAVRAVGSFGQQVRGVSCNVEEVMRLIAANVGIGMLPDHIASEAVAAGDLWQLPPYRDLPTTDVFRISNPNSILNPAEAAFLAHVADTQALDHCHHQQD | not soluble
MGSDKIHHHHHHALGVVDEVHAGKEIGLQIYSLSQELYKGDVAANLRKVKDMGYSKLELAGYGKGAIGGVPMMDFKKMAEDAGLKIISSHVNPVDTSISDPFKAMIFKYSKEVTPKIMEYWKATAADHAKLGCKYLIQPMMPTITTHDEAKLVCDIFNQASDVIKAEGIATGFGYHNHNMEFNRVATKEQQEKVKGNPFAAFMKVGDQIYDLMLKDTDPSKVYFEMDVYWTVMGQNDPVEYMQKHPDRIKVLHIKDRAVFGQSGMMNFEMIFKQMYANGIKDYFVELEQMPDGRTQFAGVKDCADYLIKAPFVK | not soluble
MESITQIYRIGYGPSSSHTIGPRRAAEMFLDRNPRATSFRVTLYGSLAATGKGHLTDAAILAVLEAKAPTEIVWKPEIFQNFHPNGMLFESFDKEGKQLDDWLIYSIGGGVLANEHFNEQ | not soluble
MAHHHHHHMENEALKEQEGEENKRILVLHKRYREGPFENRLRFECELEFVQSLSNIDYIKHLYENKYFSDKRFLNYLKYLNYWRTKPYIFYIHFPICLYVLEILNDGKIDEYFSKESSFNNFVYYLKLHWLFYSYQI | not soluble
PMILGYWNVRGLTHPIRLLLEYTDSSYEEKRYAMGDAPDYDRSQWLNEKFKLGLDFPNLPYLIDGSRKITQSNAIMRYLARKHHLCGETEEERIRVDVLENQAMDTRLQLAMVCYSPDFERKKPEYLEGLPEKMKLYSEFLGKQPWFAGNKITYVDFLVYDVLDQHRIFEPKCLDAFPNLKDFVARFEGLKKISDYMKSGRFLSKPIFAKMAFWNPK | soluble
MLPVSCKLPNMGTYQSYLSSSMPAGCVLPVGGNFEILLHYYLLNYAKKCHQSEETMVSMIIANALLGIPKVLYKSKTGKYSFPHTYIRAVHALQTNQPLVSSQTGLESVMGKYQLLTSVLQCLTKILTIDMVITVKRHPQKVHNQDSEDELLEHHHHHH | not soluble
MGHHHHHHSHMANSMANSLSSTQTDYRLSDDLLGPVLAILDAYIDPYLAKGLVSAGCVNKLAIEGKRLQLGLVYPYPCMTQYRDTVMALTNKLAVLDAIDEVECEIDFQPKVYSAIASIAPIANVKQVIAVASGKGGVGKSTTAVNLALALAAEGAQVGILDADIYGPSVPLMLGIPNFRPVSPDGKHMTAASAYGIAAQSIGFMLSGDEAAVWRGPMAAGALAQLLNETQWPELDYLVVDMPPGTGDIQLTLSQKVPVSGAVIVTTPQDIALADAKKGITMFQKVNIPVLGIVENMSFHLCPECGHKEHPFGTHGGSKMAERYQVPLLGALPLHINIREAMDVGAPTVVAEPDSEVAALYREIARKVGAELALKQSQKTVSISVSDDE | not soluble
MYKTIIMPVDVFEMALSDKAVRHAEFLAQQDGVIHLLHVLPGSASFTMSRFTADLRRFEEHLQHEAETRLQTMVSHFSIDPSRIKLHVRFGSVRDMVNELASEINADVVVIGSRNPSISTHLLGSNASSVIRHAHIPVMVVR | not soluble
MNITNEREDGEKMGSKNYTDVLIAGKIYTLGGLEEETYLQQVASYLNDKIAGLHRQDGFRKQPEDYQNVMTYLNIADDYFKEREHAGLLAVQKEELEKETYRLKHELVSTQMKLEAMRAELEKYKALETLEHSRGKEAEKEEQARK | soluble
MGSDKIHHHHHHMKCPTETLPMMRCNQILDAAERLIESQGIVSFKFSQLAKEVGCSTGTLYKFFERKEDVLVCLFLRSATSNHLPIFIDKHPELSELEKVLLPVLFTFETISRSKSFFTLRSVSVNTMVWQLASDEKVERFKKRINAFWGWFTDSLHAAVEQGELQATPLQIKELVQGLTFYLTGSLTQFESQLIAPEYLSNRRETCYRHLAKLMGQYKWNQALTPELFDSLEARTKAFFDQHYRDHMTCAACSALSGVNLKDRPACVRQAYQ | not soluble
